How the values were obtained:
[1] = target: T1 scTCR with wild-type CDR loops (stabilized version), Y51A, soluble (human); assay: SPR
[2] = target: T1-S18.45 Q31A scTv, yeast-displayed (human); assay: flow cytometry on cells

Substance | Kd [1] [µM] | other [2] [fold]
MART-1/HLA-A2 of the steady-state SPR (peptide variant not stated) (from UniProt P61769 21-119) (peptide-MHC) | > 1000 | –
MART-1/HLA-A2-biotin monomer (UV peptide exchange) (from UniProt P61769 21-119) (peptide-MHC) | – | > 15

Source: paper PMC3844621
